Assay results: the RNAGym collection of RNA variant scans (doi:10.1101/gr.219683.116)

B1: mRNA-splicing (parent)
chain: AGUUGCUGCUGGGAGCUCCAGCACAGUGAAAUGGACAGAAGGGCAGAGCAA

Variants of: B1
Assay: exon inclusion enrichment index; higher = more inclusion; WT1 exon 5 minigene, HEK293

Variant | exon inclusion enrichment index
G5A U7C G8A U10C C19A A20C | 1.38
C6A U7C C9A U10C A35C C36U | 0.742
G5A C6U U7A G8U C9A G42U G43U | 0.23
G5A C6G U7G C9A G26A U27A | 0.00661
C6A U7A C9A U10A G38C A39C | 0.874
G5C C6A U7C G8A U10A G38U A39C | 0.0552
G5A U7C G8A U10C U27G G28U | 0.0167
G5A U7C G8A U10C U27G G28C | 1.17
U4G G5A C6A U7C G8A U10A | 0.403
G5U G8U C9U A40C G41C | 0.711
G5A C6U U7A G8U C9A A31G U32A | 0.855
C6A U7A C9A U10A G13A A14C | 2.82
G5C C6A U7C G8A U10A A25U G26A | 0.172
U3C U4G C6A U7C C9A U10C | 2.89
G5U G8U C9U G21C C22A | 0.108
G5A C6U U7A G8U C9A G13U | 0.00122
G5C C6A U7C U10C | 3.16
G5A C6U U7A G8U C9A A31U U32C | 0.168
G5C C6G U7C U10C C24A | 3.28
G5U G8U C9U U10G G11C | 0.742
C6A U7A C9A U10A G42A G43C | 3.53
G5C C6A U7G U10A | 0.0115
G5C C6U G8C C9U U10C A35C C36A | 1.37
G5C C6U G8C C9U U10C A25U G26U | 1.7

Variant | exon inclusion enrichment index
G5C C6A U7C G8A U10A A31G U32G | 0.0429
G5U C6U | 0.0058
G5A C6U U7A G8U C9A A37G | 0.17
G5C C6G U7C U10C G26C | 3.97
C6A U7C C9A U10C C16G | 2.49
G15C C16A | 0.0306
G5C C6A U7C G8A U10A C24G A25U | 0.184
G5A C6G U7G C9A A31G U32C | 0.00508
G5A U7C C9A U10C | 2.95
G2A U3C G5A U7C G8A U10C | 2.1
G2U U3G G5A C6G U7G C9A | 0.0222
C6A U7C U10A | 0.41
G5C C6A U7C G8A U10A C36U A37G | 0.111
G5U G8U C9U U27G | 0.0266
C6A U7A C9A U10A G11A G12U | 1.67
G5C C6G U7C U10C C22G | 3.75
G5A U7C G8A U10C C16G | 1.39
G5C C6U G8C C9U U10C C18A | 1.39
G5A U7C G8A U10C A40U | 1.97
G5A C6G U7G C9A C44A A45C | 0.00399
G5A U7C G8A U10C A31U | 2.07
G5A C6U U7A G8U C9A A45U G46C | 0.0684
G5C C6A U7C G8A U10A A25C G26U | 0.241
C6A U7A C9A U10A G46U A47G | 0.587

Variant | exon inclusion enrichment index
C6A U7A C9A U10A G46U A47C | 1.79
G2U U3A G5A C6U U7A G8U C9A | 0.247
C6A U7C C9A U10C G12C G13U | 0.77
G5C C6U G8C C9U U10C A37U | 1.73
G5C C6U G8C C9U U10C U32C | 3.26
C6A U7C C9A U10C C44G A45G | 1.29
G5U G8U C9U A29U A30U | 0.0146
G5C C6U G8C C9U U10C U17G | 1.65
G5A U7C G8A U10C G43C C44U | 1.59
G5C C6A U7C G8A U10A G34A A35G | 0.0257
G5C C6A U7C G8A U10A G15U | 0.098
G5C C6U G8C C9U U10C G41A G42U | 1.71
U4G G5U G8U C9U | 0.267
G5A C6G U7G C9A A23G C24U | 0.000891
A23G C24G | 1.64
G5A U7C G8A U10C C16U U17A | 1.74
G5C C6G U7C U10C A23U C24U | 0.822
C6A U7C C9A U10C A14C | 3.07
G5A C6G U7G C9A G13U | 0.000555
G5C C6U G8C C9U U10G G11C | 2.13
G5A C6G U7G C9A A20U G21C | 0.00185
C6A U7A C9A G11C | 3.26
U32A | 0.107
G5U C6U U7C U10C | 3.03

Variant | exon inclusion enrichment index
G5A C6G U7G C9A A40G G41C | 0.0252
G5U G8U C9U G46U A47U | 0.164
G5A C6G U7G C9A U27C G28C | 0.0122
G5C C6A U7C G8A U10A U32C G33U | 0.0717
G5A C6G U7G C9A A40G | 0.00228
G21A C22U | 1.19
C6A U7A C9A U10A G11C G12U | 1.91
C6A U7A C9A U10A G11C G12A | 1.98
C6A U7A C9A U10A A35C | 0.237
G5C C6U G8C C9U U10C U27G G28A | 2.11
C6A U7A C9A U10A G34A A35C | 0.52
C6A U7A C9A U10A G34U A35U | 0.0771
G5U G8U C9U A40U G41U | 0.0547
A25C | 1.1
U4A G5U C6A U7C C9A U10C | 2.45
G5U G8U C9U A31G | 0.187
C6A U7A C9A U10A U27A G28A | 0.824
G5C C6U G8C C9U U10C C19U A20U | 0.25
G5A C6U U7A G8U C9A A14C G15C | 0.0124
G5C C6U G8C C9U U10C G34U A35U | 0.377
C16A U17C | 0.0503
G5A U7C G8A U10C G26C | 2.46
G5U G8U C9U G41C G42A | 0.229
